Measured values reported in patent publication US20230012273A1 (Boehringer Ingelheim, published 2023).

Key:
[1] = target: T1, full-length human SIRPαV2 (CAA71403.1) on cells (human, UniProt P78324 31-504); assay: flow cytometry, competition with CD47 tetramer, CHO-K1 cells; * inhibition plateaus at <100%
T1 construct: one molecule for CHO-K1 and Expi-CHO transfectants (CAA71403.1) and for endogenous V2 on THP-1 cells and on CD14+ monocytes of V2/V2 donors; also called CHO-hSIRPαV2; αV2 WT
Protocol: Cells are washed, fixed, and analyzed by flow cytometry. Median fluorescent intensity is determined and used as a measure of CD47 binding.

[2] = target: T2, human SIRPβ1 extracellular domain + His-tag (NP_006056.2) (human, UniProt O00241 30-371); assay: SPR, Ab captured, ECD-His analyte
T2 construct: also called hSIRPβ1; HuSIRPβ1
How it was run: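 In HBS-EP+ (1×), captured antibodies are exposed to a twofold concentration series of SIRP extracellular domain carrying a His tag, using 300 s contact at 30 μl/min and a 600 s dissociation window.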

[3] = target: T3, full-length human SIRPγ (NP_061026.2) on cells (human, UniProt Q9P1W8 29-387); assay: flow cytometry, primary human CD3+ T cells
T3 construct: on CHO and Expi-CHO cells; endogenous on primary human CD3+ T cells; also called γ WT
How it was run: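 Binding was read as median fluorescence intensity on the CD3+ gate after titrated antibody was applied to donkey-IgG-blocked human PBMCs. Incubation was 60 min on ice, followed by staining with an AF647-labelled anti-human IgG F(ab′)₂ secondary and fixation before flow analysis.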

[4] = target: T4, full-length human SIRPγ (NP_061026.2) on cells (human, UniProt Q9P1W8 29-387); assay: flow cytometry, Expi-CHO cells
T4 construct: also called CHO-hSIRPγ; γ WT
Protocol: (§1) Expi-CHO parental cells are transduced with lentiviruses containing either full-length wild-type human SIRPγ ([…]) or full-length human SIRPγ with amino acid point mutations (Table 64) and sorted to achieve matching expression levels. These cells are blocked with donkey IgG and incubated on ice with increasing concentrations of antibodies for 60 minutes, washed and stained with AF647-conjugated donkey F(ab′)₂ anti-human IgG antibodies. Stained cells are washed, fixed, and analyzed by flow cytometry. Median fluorescent intensity is determined and used as a measure of antibody binding.

[5] = target: T5, full-length human SIRPγ E→D on Expi-CHO cells (human, UniProt Q9P1W8 29-387); assay: flow cytometry, Expi-CHO cells
T5 construct: the entry already carries the change (PENV to PDNV)
Protocol: as §1

[6] = target: T4, full-length human SIRPγ (NP_061026.2) …; assay: flow cytometry, primary CD3+ T cells
Protocol: Antibody binding to primary human T cells expressing endogenous SIRPγ is evaluated by flow cytometry. Human peripheral blood mononuclear cells (PBMCs) are blocked with donkey IgG and incubated on ice with increasing concentrations of antibody for 60 minutes, washed and stained with AF647-conjugated donkey F(ab′)₂ anti-human IgG secondary reagent. […] Cells are washed, fixed, and analyzed by flow cytometry. Median fluorescent intensity of CD3+ gated population is determined and used as a measure of antibody binding.

B1: Antibody E (antibody, human IgG1, kappa, L234A L235A)
heavy: not shown
light: DIVMTQSPLSLPVTPGEPASISCKSSQSLLYSNGYNYLDWYLQRPGQSPQLLIYLGSNRASGVPDRFSGSGSGTDFTLKISRVEAEDVGVFYCMQALQTPLTFGGGTKVEIKRTVAAPSVFIFPPSDEQLKSGTASVVCLLNNFYPREAKVQWKVDNALQSGNSQESVTEQDSKDSTYSLSSTLTLSKADYEKHKVYACEVTHQGLSSPVTKSFNRGEC
IC50 [1]: 700 pM

B2: Antibody A (antibody, human IgG1, kappa, L234A L235A)
heavy: not shown
light: DIQMTQSPSSLSASVGDRVTITCRASQDINNYLAWFQQKPGKAPKSLIYTASSLHSGVPSKFSGSGSGTDFTLTISSLQPEDFATYYCQQYVSYPYTFGQGTKLEIKRTVAAPSVFIFPPSDEQLKSGTASVVCLLNNFYPREAKVQWKVDNALQSGNSQESVTEQDSKDSTYSLSSTLTLSKADYEKHKVYACEVTHQGLSSPVTKSFNRGEC
Kd [2]: 78200 pM

B3: Antibody A10 (antibody, human IgG1, kappa, L234A L235A)
heavy: not shown
light: DIQMTQSPSSLSASVGDRVTITCRASQDINNYLAWFQQKPGKAPKSLIYTASSLHSGVPSKFSGSGSGTDFTLTISSLQPEDFATYYCQQYVSYPYTFGQGTKLEIKRTVAAPSVFIFPPSDEQLKSGTASVVCLLNNFYPREAKVQWKVDNALQSGNSQESVTEQDSKDSTYSLSSTLTLSKADYEKHKVYACEVTHQGLSSPVTKSFNRGEC
binding result [3]: no binding

B4: Anti-SIRPα antibody KWAR23 (antibody, V domains shown)
VH: EVQLQQSGAELVKPGASVKLSCTASGFNIKDYYIHWVQQRTEQGLEWIGRIDPEDGETKYAPKFQDKATITADTSSNTAYLHLSSLTSEDTAVYYCARWGAYWGQGTLVTVSS
VL: QIVLTQSPAIMSASPGEKVTLTCSASSSVSSSYLYWYQQKPGSSPKLWIYSTSNLASGVPARFSGSGSGTSYSLTISSMEAEDAASYFCHQWSSYPRTFGAGTKLELK
EC50 [4]: 113 pM | EC50 [5]: 300 pM | EC50 [6]: 30 pM
